Measurements taken from PMC12658286.

Experiments:
[1] = Flag-PD-L1 IP with HA-Ub, Western blot; conditions: glycan gained; control: control-transfected HepG2 (vector / siNC), MG132
Western blot of PD-L1 = conditions: glycan lost; control: untreated HepG2 cells

| Substance | other: ubiquitination [1] | expression_or_secretion (Western blot of PD-L1) |
| --- | --- | --- |
| PD-L1: GALNT16 overexpression | decreases | – |
| PD-L1: tunicamycin (2 µg/mL, 18 h) | – | decreases |
